US11723946B2, “Methods for regulating transcription of multiple genes and expression of multiple targets” (CHINA MEDICAL UNIVERSITY, priority 2014, dated 2023)

Assays:
NF-κB = assay: Ex vivo bioluminescent imaging of organs, LPS-induced NF-κB/luc transgenic mice; format: in vivo
Method: The mice of the three groups manipulated in example 3 were abdominally injected with 150 mg/Kg luciferin. After luciferin injection for 5 minutes, the mice were sacrificed and the tissues including brain, heart, lung, liver, spleen, stomach, kidney, ovary and intestine were rapidly removed. The collected tissues were placed in the IVIS Imaging System-200 Series (Xenogen, Hopkinton, Mass.) and imaged with the same setting used for in vivo bioluminescent imaging.
In the table 2, the average of luciferin value in the mice of the group 2 was divided to average of luciferin value in the mice of the group 1 to obtain the fold change. In table 3, the average of luciferin value in the mice of the group 3 was divided to the average of luciferin value in the mice of the group 2 to obtain the fold change.

[1] = Serological and biochemical analysis in NOD mice; format: in vivo; conditions: 20 weeks; for Creatinine in serum: control 0.70 ± 0.05; for BUN: control 40.50 ± 4.54
Method: (§1) 23 mice were divided into four groups with different administrations for 20 weeks, wherein 6 mice of the group 1 were control mice that were daily orally administrated with 20 μl of PBS. 6 mice of the group 2 were daily orally administrated with 20 μl of 0.01 umol/kg solution that contained the present polypeptide comprising the amino acid sequence of SEQ ID No. 1. 6 mice of the group 3 were daily orally administered with 20 μl of 0.1 umol/kg solution that contained the present polypeptide comprising the amino acid sequence of SEQ ID No. 1. 5 mice of the group 4 were daily orally administrated with 20 μl of 1 umol/kg solution that contained the present polypeptide comprising the amino acid sequence of SEQ ID No. 1.
(§2) During the administration period, the survival rate, incidence of diabetes and diabetes-induced retinopathy in the each group were measured and shown in table 5. After the administration, the blood samples were collected for serological and biochemical analysis.

[2] = Survival, diabetes incidence and retinopathy in NOD mice; format: in vivo; conditions: 20 weeks; for Incidence of diabetes, mice/mice: control 2/6; for Diabetes-induced retinopathy, mice/mice: control 3/6; for Survival rate, mice/mice: control 4/6
Method: as §1, §2

[3] = test system: 4-hydroxynonenal, malondialdehyde; assay: IHC of lipid oxidation products in hepatic tissue, high fat diet mice; format: in vivo; conditions: 10 mmol/kg peritoneal injection twice weekly, 4 weeks, group 3 vs group 2
Method: (§3) 30 wild-type FVB mice were randomly divided into three groups, wherein the mice of the group 1 were the blank group that were fed with normal condition. The mice of the control group (the group 2) and the experimental group (the group 3) were fed with high fat diet. […] The mice in the group 2 and the group 3 were peritoneally injected with 100 μl of PBS.
(§4) After the administration, livers in the mice of the each group were collected for the histology sections. The hepatic histology of livers in the mice of the each group was […] for H&E staining and oil red-O staining to examined the lipid accumulation in liver, respectively. Furthermore, the product of lipid oxidation in hepatocytes was examined by IHC staining described in example 3 with antibodies against 4-hydroxynonenal ([…]) or malondialdehyde (MDA) on the hepatic tissues of the each group.

[4] = Hepatic histology (H&E, oil red-O) in high fat diet mice; format: in vivo; conditions: 10 mmol/kg peritoneal injection twice weekly, 4 weeks, group 3 vs group 2
Method: as §3, §4

[5] = test system: Fat pad (fatty acid metabolism genes); conditions: Up-regulated, 2.5 mmol/kg daily, 7 days
Method: The wild-type FVB mice were divided into the control group and the experimental group, wherein the mice in the experimental group were daily administered with 20 μl peptide-containing solution that contains 2.5 mmol/kg of the present peptide for 7 days. Moreover, the mice in the control group were daily administrated with 20 μl PBS solution for 7 days.
After the daily administration, the tissues of column, muscle, fat pad, liver and kidney were collected for analyzing the expression of multiple targets by system biology analysis. Herein, the altered expressions of the targets in the genome were determined by using DNA microarray which is a well-established tool for systematic biology analysis. Furthermore, the results of the DNA microarray were further categorized and analyzed by bioinformatics analysis to determine the effect and affected signaling pathways of the present polypeptide.
(1) RNA preparation: The total RNA was extracted from the tissue by using RNeasy Mini Kit (Qiagen, Valencia, Calif., USA). The amount of the extracted total RNA was measured by Beckman DU800 spectrophotometer (Beckman Coulter, Fullerton, Calif., USA). In the next step, the quality of the RNA sample with A260/A280 ratio more than 1.8 was further evaluated by Agilent 2100 bioanalyzer (Agilent Technologies, Santa Clara, Calif., USA). When with the RNA integrity number of the sample is more than 8.0, it would be analyzed by the following microarray analysis.
(2) DNA microarray analysis: The procedure of DNA microarray analysis was conducted according to the reference (Cheng, 2007). Briefly, 5 μg of total RNA was amplified by in vitro transcription using MessageAmp™ aRNA kit (Ambion). In the following, the fluorescence dye, Cy5, was chemically labeled on the amplified RNA (aRNA). After the labeling, the fluorescence labeled aRNA was hybridized with Whole Genome OneArray™ in hybridization buffer (Phalanx Biotech Group, Taiwan) on cover slide. Following the hybridization reaction at 50° C. over-night, the non-specific binding on the chip was washed by three washing steps. The washed chip was dried by centrifugation and was scanned by Axon 4000 scanner (Molecular Devices, Sunnyvale, Calif., USA) to measure the fluorescence signals. The fluorescence intensity of Cy5 on each spots was further analyzed by genepix 4.1 (Molecular Devices). First, the signals of each spot were adjusted by deducting the intensity of background. In the next step, the spots including the probes of internal controls or the spots with the signal-to-noise ratios less than 0 would be removed. The qualified spots were normalized by limma package which is belonged to R console (Smyth, 2005).

[6] = Fat accumulation in genetic deficient mice with massive abdominal fat; format: in vivo
Method: The mice were divided into control group and experimental group. […] In addition, the mice in the control group were peritoneally injections with 100 ul of PBS.
During the treatment period, the body weight and dietary intake of the mice were recorded at the regular time points. After the treatment, the gross views of whole animals were recorded by photographing. In the following, the fat pads of the mice were collected for the measurement of fat pad weight. The histological examination was performed to determine the number and size of the adipocytes in the mice of the both groups. Furthermore, the percentage of body fat was calculated according the formulation: (fat weight/body weight)×100%, and shown in table 4.

TNF-α = assay: Immunohistochemistry staining of organs, LPS-induced mice; format: in vivo; conditions: group 3 vs group 2 (LPS)
Method: (§5) Immunohistochemistry (IHC) would be known by an ordinary person skilled in the art. The organs were collected from the mice of the each group for paraffin embedding and histology section. The parafilm-embedded organs were cut into […] sections, deparaffinized in xylene and then rehydrated in graded alcohol. Endogenous peroxidase was quenched with 3% hydrogen peroxide in methanol for 15 mins and the nonspecific binding was blocked with 1% bovine serum albumin at room temperature for 1 hour. The blocked sections were further incubated with 50-folds diluted mouse monoclonal antibodies against p56, TNF-α or IL-1β proteins at 4° C. for 16-18 hours, respectively and then incubated with biotinylated secondary antibodies (Zymed Laboratories, South San Francisco, Calif.) that against the Fc fragment of the co-responding first antibody at room temperature for 20 minutes. Finally, the slides were incubated with avidin-biotin complex reagent and stained with 3,3′-diaminobenzidine according to manufacturer's protocol (Histostain®-Plus Kit, Zymed Laboratories, South San Francisco, Calif.).

IL-1β = assay: as above; format: in vivo; conditions: group 3 vs group 2 (LPS)
Method: as §5

[7] = group 3 (LPS + 0.5 mg/Kg polypeptide IP) vs group 2 (LPS), down-regulation
[8] = group 3 (LPS + 0.5 mg/Kg polypeptide IP) vs group 2 (LPS), up-regulation
[9] = Group 2: 0.01 umol/kg daily oral
[10] = Group 3: 0.1 umol/kg daily oral
[11] = experimental group vs control group, in words

Sequence of IL-1β (P10749 118-269): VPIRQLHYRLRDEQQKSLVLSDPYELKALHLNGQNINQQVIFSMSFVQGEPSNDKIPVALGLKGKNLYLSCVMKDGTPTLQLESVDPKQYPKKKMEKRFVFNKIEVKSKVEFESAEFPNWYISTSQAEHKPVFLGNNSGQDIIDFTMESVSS

B1: present polypeptide: polypeptide comprising the amino acid sequence of SEQ ID No. 1; made by peptide synthesis, recombinant expression or extraction from Momordica charantia (peptide, listed as Artificial synthsis)
chain: SRCQGKSSWPQLVGSTGAAAKAWIERENPRVRAVIIKVGSGATKDFRCDRVRVWVTERGIVARPPTIG
luminescent intensities detected from lung, liver, kidney and intestine (NF-κB; experimental group (group 3) compared with control group (group 2)): obviously decreased
Fold change of the luciferin value, Intestine (NF-κB; [7]): 1.96
Fold change of the luciferin value, Kidney (NF-κB; [7]): 1.08
Fold change of the luciferin value, Liver (NF-κB; [7]): 1.57
Fold change of the luciferin value, Lung (NF-κB; [7]): 1.68
Fold change of the luciferin value, Brain (NF-κB; [8]): 1.40
Fold change of the luciferin value, Heart (NF-κB; [8]): 1.13
Fold change of the luciferin value, Ovary (NF-κB; [8]): 1.17
Fold change of the luciferin value, Spleen (NF-κB; [8]): 1.08
Fold change of the luciferin value, Stomach (NF-κB; [8]): 1.11
Creatinine in serum [1, 9]: 0.64 ± 0.12 mg/dL
BUN [1, 9]: 37.38 ± 2.77 mg/dL
Creatinine in serum [1, 10]: 0.69 ± 0.06 mg/dL
BUN [1, 10]: 38.50 ± 4.69 mg/dL
Creatinine in serum ([1]; Group 4: 1 umol/kg daily oral): 0.69 ± 0.06 mg/dL
BUN ([1]; Group 4: 1 umol/kg daily oral): 35.88 ± 6.33 mg/dL
Incidence of diabetes, mice/mice [2, 9]: 0/6
Diabetes-induced retinopathy, mice/mice [2, 9]: 0/6
Survival rate, mice/mice [2, 9]: 6/6
Incidence of diabetes, mice/mice [2, 10]: 0/6
Diabetes-induced retinopathy, mice/mice [2, 10]: 1/6
Survival rate, mice/mice [2, 10]: 6/6
Incidence of diabetes, mice/mice ([2]; Group 4: 1 umol/kg daily oral): 1/5
Diabetes-induced retinopathy, mice/mice ([2]; Group 4: 1 umol/kg daily oral): 1/5
Survival rate, mice/mice ([2]; Group 4: 1 umol/kg daily oral): 5/5
products of lipid oxidation (HNE, MDA) in hepatic tissue [3]: obviously decreased
lipid accumulation in the liver [4]: less lipid accumulation
Fold, Acox1 [5]: Up-regulated 2.0 folds
Fold, Acsl4 [5]: Up-regulated 5.1 folds
Fold, Cpt1a [5]: Up-regulated 3.1 folds
Fold, Cpt2 [5]: Up-regulated 1.5 folds
Fold, Hsd17b4 [5]: Up-regulated 1.7 folds
Fold, Sirt1 [5]: Up-regulated 3.0 folds
Fat weight ([6]; Experimental mice, 2.5 nmol/kg peritoneal twice a week, 4 weeks, control 2.53 ± 0.19): 1.90 ± 0.41 g
Body weight at end point ([6]; Experimental mice, 2.5 nmol/kg peritoneal twice a week, 4 weeks, control 71.95 ± 6.25): 72.54 ± 7.24 g
Body fat ([6]; Experimental mice, (fat weight/body weight)×100%, control 3.68 ± 0.16): 2.74 ± 0.21%
fat weight compared with control group [6, 11]: obviously decreased
percentage of body fat compared with control group [6, 11]: obviously decreased
brown zone (active TNF-α signal) in tissue, IHC (TNF-α): obviously less than the group 2
brown zone (active IL-1β signal) in tissue, IHC (IL-1β): obviously less than the group 2
